Measurements reported in patent US20260077004A1 (UNIVERSITY OF MASSACHUSETTS, published 2026).

Target: wild-type KCNH2 (human, UniProt Q12809 1-1159)
Experiment: cell-based or functional assay

Binder | reduction in sustained current (IKr) relative to GFP control cells, CHO cells [%] | reduction in tail current (IKr) relative to GFP control cells, CHO cells [%]
truncated G628S KCNH2 (other) MPVRRGHVAPQNTFLDTIIRKFEGQSRKFIIANARVENCAVIYCNDGFCELCGYSRAEVMQRPCTCDFLHGPRTQRRAAAQIAQALLGAEERKVEIAFYRKDGSCFLCLVDVVPVKNEDGAVIMFILNFEVVMEKDMVGSPAHDTNHRGPPTSWLAPGRAKTFRLKLPALLALTARESSVRSGGAGGAGAPGAVVVDVDLTPAAPSSESLALDEVTAMDNHVAGLGPAEERRALVGPGSPPRSAPGQLPSPRAHSLNPDASGSSCSLARTRSRESCASVRRASSADDIEAMRAGVLPPPPRHASTGAMHPLRSGLLNSTSDSDLVRYRTISKIPQITLNFVDLKGDPFLASPTSDREIIAPKIKERTHNVTEKVTQVLSLGADVLPEYKLQAPRIHRWTILHYSPFKAVWDWLILLLVIYTAVFTPYSAAFLLKETEEGPPATECGYACQPLAVVDLIVDIMFIVDILINFRTTYVNANEEVVSHPGRIAVHYFKGWFLIDMVAAIPFDLLIFGSGSEELIGLLKTARLLRLVRVARKLDRYSEYGAAVLFLLMCTFALIAHWLACIWYAIGNMEQPHMDSRIGWLHNLGDQIGKPYNSSGLGGPSIKDKYVTALYFTFSSLTSVGFSNVSPNTNSEKIFSICVMLIGSLMYASIFGNVSAIIQRLYSGTARYHTQMLRVREFIRFHQIPNPLRQRLEEYFQHAWSYTNGIDMNAVLKGFPECLQADICLHLNRSLLQHCKPFRGATKGCLRALAMKFKTTHAPPGDTLVHAGDLLTALYFISRGSIEILRGDVVVAILGKNDIFGEPLNLYARPGKSNGDVRALTYCDLHKIHRDDLLEVLDMYPEFSDHFWSSLEITFNLRDTNMIPGSPGSTELEGGFSRQRKRKLSFRRRTDKDTEQPGEVSALGPGRAGAGPSSRG | 70 | 78
full-length G628S KCNH2 (other) MPVRRGHVAPQNTFLDTIIRKFEGQSRKFIIANARVENCAVIYCNDGFCELCGYSRAEVMQRPCTCDFLHGPRTQRRAAAQIAQALLGAEERKVEIAFYRKDGSCFLCLVDVVPVKNEDGAVIMFILNFEVVMEKDMVGSPAHDTNHRGPPTSWLAPGRAKTFRLKLPALLALTARESSVRSGGAGGAGAPGAVVVDVDLTPAAPSSESLALDEVTAMDNHVAGLGPAEERRALVGPGSPPRSAPGQLPSPRAHSLNPDASGSSCSLARTRSRESCASVRRASSADDIEAMRAGVLPPPPRHASTGAMHPLRSGLLNSTSDSDLVRYRTISKIPQITLNFVDLKGDPFLASPTSDREIIAPKIKERTHNVTEKVTQVLSLGADVLPEYKLQAPRIHRWTILHYSPFKAVWDWLILLLVIYTAVFTPYSAAFLLKETEEGPPATECGYACQPLAVVDLIVDIMFIVDILINFRTTYVNANEEVVSHPGRIAVHYFKGWFLIDMVAAIPFDLLIFGSGSEELIGLLKTARLLRLVRVARKLDRYSEYGAAVLFLLMCTFALIAHWLACIWYAIGNMEQPHMDSRIGWLHNLGDQIGKPYNSSGLGGPSIKDKYVTALYFTFSSLTSVGFSNVSPNTNSEKIFSICVMLIGSLMYASIFGNVSAIIQRLYSGTARYHTQMLRVREFIRFHQIPNPLRQRLEEYFQHAWSYTNGIDMNAVLKGFPECLQADICLHLNRSLLQHCKPFRGATKGCLRALAMKFKTTHAPPGDTLVHAGDLLTALYFISRGSIEILRGDVVVAILGKNDIFGEPLNLYARPGKSNGDVRALTYCDLHKIHRDDLLEVLDMYPEFSDHFWSSLEITFNLRDTNMIPGSPGSTELEGGFSRQRKRKLSFRRRTDKDTEQPGEVSALGPGRAGAGPSSRGRPGGPWGESPSSGPSSPESSEDEGPGRSSSPLRLVPFSSPRPPGEPPGGEPLMEDCEKSSDTCNPLSGAFSGVSNIFSFWGDSRGRQYQELPRCPAPTPSLLNIPLSSPGRRPRGDVESRLDALQRQLNRLETRLSADMATVLQLLQRQMTLVPPAYSAVTTPGPGPTSTSPLLPVSPLPTLTLDSLSQVSQFMACEELPPGAPELPQEGPTRRLSLPGQLGALTSQPLHRHGSDPGS | 65 | 58
